The target of one series is T1, Apaf-1 polypeptide (Homo sapiens, UniProt O14727).
T1 construct: endogenous in cells; host or cells: 293T
T1 sequence (O14727 1-1248): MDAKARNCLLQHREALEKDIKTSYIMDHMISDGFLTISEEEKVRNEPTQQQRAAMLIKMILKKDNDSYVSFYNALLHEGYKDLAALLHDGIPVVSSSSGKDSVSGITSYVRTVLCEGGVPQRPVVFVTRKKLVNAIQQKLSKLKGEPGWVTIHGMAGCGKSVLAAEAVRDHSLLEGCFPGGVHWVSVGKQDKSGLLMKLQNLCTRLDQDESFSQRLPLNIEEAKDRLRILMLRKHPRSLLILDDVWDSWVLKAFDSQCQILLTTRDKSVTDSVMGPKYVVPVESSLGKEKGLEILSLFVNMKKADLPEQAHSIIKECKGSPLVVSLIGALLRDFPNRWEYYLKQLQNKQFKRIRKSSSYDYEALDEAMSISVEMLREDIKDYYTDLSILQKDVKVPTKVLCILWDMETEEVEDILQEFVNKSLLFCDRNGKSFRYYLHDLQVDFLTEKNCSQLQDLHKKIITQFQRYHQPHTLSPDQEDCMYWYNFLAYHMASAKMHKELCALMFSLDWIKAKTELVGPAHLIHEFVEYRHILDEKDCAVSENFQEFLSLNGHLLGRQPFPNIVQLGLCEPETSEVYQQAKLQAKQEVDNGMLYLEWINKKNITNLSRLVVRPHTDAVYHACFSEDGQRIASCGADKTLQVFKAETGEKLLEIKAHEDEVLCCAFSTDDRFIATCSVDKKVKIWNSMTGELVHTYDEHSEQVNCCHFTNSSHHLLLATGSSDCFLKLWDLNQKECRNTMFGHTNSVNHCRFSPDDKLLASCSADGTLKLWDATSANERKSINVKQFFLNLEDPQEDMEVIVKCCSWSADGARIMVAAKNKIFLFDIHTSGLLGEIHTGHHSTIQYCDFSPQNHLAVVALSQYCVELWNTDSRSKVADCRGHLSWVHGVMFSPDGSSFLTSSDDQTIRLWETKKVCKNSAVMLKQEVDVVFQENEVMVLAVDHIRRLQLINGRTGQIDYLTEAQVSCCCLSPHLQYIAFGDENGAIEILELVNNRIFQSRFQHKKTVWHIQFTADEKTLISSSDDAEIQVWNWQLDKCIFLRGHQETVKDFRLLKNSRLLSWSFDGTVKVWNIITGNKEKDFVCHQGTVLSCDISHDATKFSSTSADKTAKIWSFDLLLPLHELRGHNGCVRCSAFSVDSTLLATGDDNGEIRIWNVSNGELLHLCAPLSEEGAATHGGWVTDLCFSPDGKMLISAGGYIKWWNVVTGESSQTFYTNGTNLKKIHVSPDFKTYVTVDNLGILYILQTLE
Description: Co-immunoprecipitation of endogenous Apaf-1 in 293T cells. The conditions noted are these: anti-V5 immunoprecipitation from 293T cells. Format: binding. How it is done: To confirm this interaction, 293T cells were used to test the physical interaction between Apaf-1 and Bcl2L12 polypeptides in vivo. […] To test the association between Apaf-1 and Bcl2L12 polypeptides in vivo, Bcl2L12-V5 polypeptides were expressed in 293T cells and immunoprecipitated with an anti-V5 antibody. The amount of co-immunoprecipitated endogenous Apaf-1 polypeptide then was determined by Western blot analysis.
To assess whether the BH2 domain is necessary for Apaf-1 binding, Bcl2L12-V5-ΔBH2 polypeptides were immunoprecipitated from 293T cells, and co-immunoprecipitated Apaf-1 was quantified as described.

Another series deals with T2, caspase-9 (Homo sapiens, UniProt P55211).
T2 construct: endogenous in cells; host or cells: 293T
T2 sequence (P55211 1-416): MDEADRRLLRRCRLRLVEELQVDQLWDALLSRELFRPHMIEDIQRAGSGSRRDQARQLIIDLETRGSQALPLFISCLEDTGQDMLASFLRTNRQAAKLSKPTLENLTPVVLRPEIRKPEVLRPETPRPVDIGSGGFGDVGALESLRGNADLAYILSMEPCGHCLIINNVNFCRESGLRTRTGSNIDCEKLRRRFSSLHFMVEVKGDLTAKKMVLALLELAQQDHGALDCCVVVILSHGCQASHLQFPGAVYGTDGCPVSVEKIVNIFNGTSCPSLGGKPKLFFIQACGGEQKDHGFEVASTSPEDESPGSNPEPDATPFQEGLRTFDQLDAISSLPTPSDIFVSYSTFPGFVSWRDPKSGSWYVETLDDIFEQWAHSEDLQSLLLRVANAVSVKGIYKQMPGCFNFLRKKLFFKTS
In words: Caspase-9 in vitro cleavage and LEHDase activity assay with 293T cells. The format is cell-based. The conditions noted are these: for caspase-9 activity: V5 tagged constructs, vector only about 420 RFUs. From the text: To determine if Bcl2L12 polypeptides could-regulate-the activity of caspase-9, a cell-free system was used in which exogenously added dATP and cytochrome c induced the activation of [^35S] labeled in vitro translated caspase-9. […] To confirm the inhibitory effect of Bcl2L12 polypeptides on caspase-9 maturation, 293T cells ectopically expressing Bcl2L12-V5 polypeptides where either subjected to an in vitro cleavage assay or to an activity assay using the caspase-9 specific fluorogenic peptide LEHD.
In addition, vectors encoding V5 tagged wild-type human Bcl2L12 polypeptide (WT; human amino acid sequence 1-334) and three V5 tagged truncation mutants of human Bcl2L12 (Bcl2L12-ΔBH2 polypeptide, human amino acid sequence 1-310; Bcl2L12-ΔBH2ΔP-r polypeptide, human amino acid sequence 1-267; and Bcl2L12-ΔBH2ΔP-rΔIHD polypeptide, human amino acid sequence 1-167) were made (FIG. 4A). These vectors expressed the appropriately sized polypeptides when translated in vitro or when expressed in 293T cells.

This is an account of results in patent US7595158B2, “Bcl2L12 polypeptide activators and inhibitors” (Dana-Farber Cancer Institute, Inc., priority 2003, dated 2009).

B1: Bcl2L12-V5-ΔBH2: V5 tagged mutant lacking amino acid residues 311-334 (BH2 domain) of human Bcl2L12; sequence 1-310 (protein)
chain: MGRPAGLFPPLCPFLGFRPEACWERHMQIERAPSVPPFLRWAGYRPGPVRRRGKVELIKFVRVQWRRPQVEWRRRRWGPGPGASMAGSEELGLREDTLRVLAAFLRRGEAAGSPVPTPPRSPAQEEPTDFLSRLRRCLPCSLGRGAAPSESPRPCSLPIRPCYGLEPGPATPDFYALVAQRLEQLVQEQLKSPPSPELQGPPSTEKEAILRRLVALLEEEAEVINQKLASDPALRSKLVRLSSDSFARLVELFCSRDDSSRPSRACPGPPPPSPEPLARLALAMELSRRVAGLGGTLAGLSVEHVHSFTP
modifications: left off: small tags and cut ends
Regarding B1, the “association with Apaf-1 polypeptide” value with Apaf-1 polypeptide was “bound comparable levels of Apaf-1 polypeptide”. Further, in the series with caspase-9, the caspase-9 activity entry was “about 160 RFUs”.

B2: Bcl2L12-V5: Bcl2L12 polypeptide having the V5 epitope tag, ectopically expressed from pBabe-Bcl2L12-V5 vector; human amino acid sequence 1-334 (protein)
chain: MGRPAGLFPPLCPFLGFRPEACWERHMQIERAPSVPPFLRWAGYRPGPVRRRGKVELIKFVRVQWRRPQVEWRRRRWGPGPGASMAGSEELGLREDTLRVLAAFLRRGEAAGSPVPTPPRSPAQEEPTDFLSRLRRCLPCSLGRGAAPSESPRPCSLPIRPCYGLEPGPATPDFYALVAQRLEQLVQEQLKSPPSPELQGPPSTEKEAILRRLVALLEEEAEVINQKLASDPALRSKLVRLSSDSFARLVELFCSRDDSSRPSRACPGPPPPSPEPLARLALAMELSRRVAGLGGTLAGLSVEHVHSFTPWIQAHGGWEGILAVSPVDLNLPLD
modifications: left off: small tags and cut ends
Turning to B2, the “association with Apaf-1 polypeptide” value with Apaf-1 polypeptide is “found to be associated”. In addition, the LEHDase activity entry with caspase-9 (293T cells, control vector about 800 RFUs) was “about 260 RFUs”. Further, in the series with caspase-9, the caspase-9 activity result was “about 145 RFUs”. In addition, the “processing of caspase-9 into p37 and p35” value in the series with caspase-9 (in vitro cleavage assay, 293T cells, vs vector only) is recorded as “reduced processing of caspase-9”.
